Measurements reported in publication PMC7148328.

Target: T1, His-Dbv6 (Nonomuraea gerenzanensis) (UniProt Q7WZ85)
T1 sequence: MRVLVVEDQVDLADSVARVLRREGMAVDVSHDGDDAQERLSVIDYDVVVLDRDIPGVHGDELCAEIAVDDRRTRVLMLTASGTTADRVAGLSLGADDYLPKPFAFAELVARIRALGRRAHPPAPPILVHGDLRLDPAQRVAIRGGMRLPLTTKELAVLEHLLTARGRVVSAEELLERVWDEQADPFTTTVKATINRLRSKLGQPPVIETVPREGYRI
Test: EMSA
Settings: 12.5 mM Tris-HCl pH 7.5, 10% glycerol, 62.5 mM KCl, 0.75 mM DTT, 5 mM MgCl2, 20 uL, 4 C; 2.8-14 ug Dbv6 (legend: 0.5-2 mM), 100 ng DNA (legend: …)

Sequence | binding
GCATCGGTCTTATCCGAAACTAGGGGGGTGGATGTCCGGGATAGGGGGTGGTTCGACCTGCACAGCCTCCTTTAACCTTCCGGAGGAAGGCCTAACCGAAAGTCGGAGTGATCGGAATGCTAACGGGAAGCGTTCTGCAATTCGATGAGGTAGACGGCTACGGATTCGCGGCGACAGCGTCCAATTCTTTGCCGCGTGGAGTTGCCGAAGAAAAGAGGATGCGACG (double strand) [updbv4] | binds
TGAAGGCGACGATCAACCGGCTGCGCTCGAAGCTCGGCCAGCCGCCGGTGATCGAAACCGTCCCGCGCGAGGGATATCGCATCTGATCCGCGCGGTCACAGAGCGGTCACACGTTCTCTGACCCTCGTGTCACCTTCTGCTCCGTAGAACTGGTGTCAGATCACCAGACTGGAGGAGAGGGATGAGGA (double strand) [updbv7] | binds
GCAGGAATGGGAAAGGATCTTGCGCGGAGTGCCGCCGCATTGGGGCACCGTTGTCGCGAGATGCGCCAGGGATCATGCCCAGATCTGGGCAGCGTTCGCGGATCGCCTGGAGGGGCGGGCGACCGATCTGGCCGCTGGATGAGCACGAGTGGATGAGCCGGGCGGCCGTATGTAGAGCGACGGGACCAGGACCAGATCAGGCACACGGCAAACCAAGTCGACGAACCGCTTGGGGGACGAGCAAGAGTGCTGTTCGGGCGAGATCGTGAACTGAAGAGTCTGACGAGGTTGCTCGATTC (double strand) [updbv3] | binds
CATTCGTGTCGCCGTCTCGATCGGGGGCTGTCAGTCTGACACCATAGCTCGCGTCCGGTCGATCCTCGAGTTGCCGTCGGGGACGGGCGGGACGTGCCAGCCGTGGAAGCGCAGTGCCTCGGTGAGCCGGCCGGTGTCCTCCGGGCGCACGGAGACCTCGACCA (double strand) [updbv6] | no binding
CCTTCAGCAAACCTCCGAACGGCGACACTATGGCCATGCGGGACTCCTCTCACACGCGCACGCAAGTCAGCGACCTCAATCGTGCTGAGCGGAGCCGATGTCCACGAGTGGGTCCAACTGAACAGTTCGCGCGCTTGGACGCGTTCACCGGTGGTGGTGACCAAGCGTTCACCTGGAC (double strand) [updbv23] | binds
GCAGGTCGGAAGGGACATCTGTTCGGTGGGTGCCGGGCGCTCCATGGCAACTCCCGCGTCATCGAGGTGCTGCGCAGCCCTCGAAGGTCGCACCCGCGGACGAGAGCCTGCTTGATCGCAAGCGTGCTCAACGGACTCGATGTCTACAAGCCGGTCCAGGTGAACGCTTGGTCAC (double strand) [updbv24] | binds
